Tests used:
[1] = molecular target: T1, human ROR1 on the surface of tumor cells (human, UniProt Q01973 30-937); assay: FACS, MDA-MB-231 cells
T1 construct: whole, on cells; also called ROR1 on the cell surface; tumor cell ROR1

[2] = molecular target: T2, Extracellular domain of human ROR1 protein (ROR1-ECD) (human, UniProt Q01973 30-403); assay: ELISA, plate-coated ROR1-ECD
T2 construct: Expressed in HEK293T cells; also called human ROR1-ECD; purified human ROR1 protein extracellular segment
T2 sequence (Q01973 other isoform, or with tags, fused parts or gaps): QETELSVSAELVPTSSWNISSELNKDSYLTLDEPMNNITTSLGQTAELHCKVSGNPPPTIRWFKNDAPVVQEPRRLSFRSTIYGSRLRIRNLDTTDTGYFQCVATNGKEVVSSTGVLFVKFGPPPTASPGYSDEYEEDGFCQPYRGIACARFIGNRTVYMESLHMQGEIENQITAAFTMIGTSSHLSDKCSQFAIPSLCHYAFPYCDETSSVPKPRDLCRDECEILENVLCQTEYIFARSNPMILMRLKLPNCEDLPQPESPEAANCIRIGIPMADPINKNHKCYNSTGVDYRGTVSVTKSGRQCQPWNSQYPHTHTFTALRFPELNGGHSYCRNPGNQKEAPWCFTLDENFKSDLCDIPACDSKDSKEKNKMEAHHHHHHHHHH

T1 sequence (Q01973 30-937): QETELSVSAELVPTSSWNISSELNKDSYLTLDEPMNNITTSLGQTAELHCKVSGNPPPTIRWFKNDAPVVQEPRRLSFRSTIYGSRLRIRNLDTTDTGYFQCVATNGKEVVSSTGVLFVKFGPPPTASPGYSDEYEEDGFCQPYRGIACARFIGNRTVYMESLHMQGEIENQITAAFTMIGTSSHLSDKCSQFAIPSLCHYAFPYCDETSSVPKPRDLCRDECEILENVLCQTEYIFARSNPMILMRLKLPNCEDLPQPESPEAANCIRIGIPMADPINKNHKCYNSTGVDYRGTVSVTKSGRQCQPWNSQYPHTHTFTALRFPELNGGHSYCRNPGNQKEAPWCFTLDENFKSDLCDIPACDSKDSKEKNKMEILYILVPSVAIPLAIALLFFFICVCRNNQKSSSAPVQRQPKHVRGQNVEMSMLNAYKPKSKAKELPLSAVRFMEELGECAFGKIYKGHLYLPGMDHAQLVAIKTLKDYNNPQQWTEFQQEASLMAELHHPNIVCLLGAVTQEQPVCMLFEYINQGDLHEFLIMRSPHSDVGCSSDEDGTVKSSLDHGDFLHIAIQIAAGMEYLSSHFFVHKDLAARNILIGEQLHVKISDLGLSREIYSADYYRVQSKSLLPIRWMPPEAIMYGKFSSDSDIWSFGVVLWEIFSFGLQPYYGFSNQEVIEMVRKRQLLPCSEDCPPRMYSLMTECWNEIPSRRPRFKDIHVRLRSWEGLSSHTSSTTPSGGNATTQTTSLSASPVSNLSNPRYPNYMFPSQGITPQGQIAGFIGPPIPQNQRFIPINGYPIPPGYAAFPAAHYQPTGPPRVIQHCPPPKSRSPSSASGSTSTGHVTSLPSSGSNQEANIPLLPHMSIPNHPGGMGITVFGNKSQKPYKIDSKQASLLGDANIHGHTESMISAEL

| Binder | binding result [1] | binding result [2] |
| --- | --- | --- |
| Hu005-46 (antibody, V domains shown, Humanized) VH: EVQLVESGGGLVKPGGSLRLSCAASGFTFNSYAMSWVRQTPGKRLEWVATISDAGSYTYYPDNEKGRFTISRDNAKNSLYLQMNSLRAEDTAIYYCVRGGYYYNLYAMDYWGQGTLVTVSS VL: DIVLTQSPDSLAVSLGERATINCKASQSVSFPGTSLMHWYQQKPGQQPKLLIYRASNLEAGVPDRFSGSGSRTDFTLTISSLQAEDVAVYYCQQSREYPWTFGGGTKVEIK | binds | binds |
| Hu005-44 (antibody, V domains shown, Humanized) VH: EVQLVESGGGLVKPGGSLRLSCAASGFTFNSYAMSWVRQTPGKGLEWVATISDAGSYTYYPDNEKGRFTISRDNAKNSLYLQMNSLRAEDTAIYYCVRGGYYYNLYAMDYWGQGTLVTVSS VL: DIVLTQSPDSLAVSLGERATINCKASQSVSFPGTSLMHWYQQKPGQQPKLLIYRASNLEAGVPDRFSGSGSRTDFTLTISSLQAEDVAVYYCQQSREYPWTFGGGTKVEIK | binds | binds |
| Hu005-35 (antibody, V domains shown, Humanized) VH: EVQLVESGGGLVKPGGSLRLSCAASGFTFNSYAMSWVRQTPEKRLEWVATISDAGSYTYYPDNEKGRFTISRDNAKNNLYLQMNSLRAEDTAIYYCVRGGYYYNLYAMDYWGQGTLVTVSS VL: DIVLTQSPDSLAVSLGERATINCKASQSVSFPGTSLMHWYQQKPGQQPKLLIYRASNLEAGVPDRFSGSGSRTDFTLTISSLQAEDVAVYYCQQSREYPWTFGGGTKVEIK | binds | binds |
| Hu005-41 (antibody, V domains shown, Humanized) VH: EVQLVESGGGLVKPGGSLRLSCAASGFTFNSYAMSWVRQTPGKRLEWVATISDAGSYTYYPDNEKGRFTISRDNAKNNLYLQMNSLRAEDTAIYYCVRGGYYYNLYAMDYWGQGTLVTVSS VL: DIVLTQSPDSLAVSLGERATINCKASQSVSFPGTSLMHWYQQKPGQQPKLLIYRASNLEAGVPDRFSGSGSRTDFTLTISSLQAEDVAVYYCQQSREYPWTFGGGTKVEIK | binds | binds |
| Hu005-40 (antibody, V domains shown, Humanized) VH: EVQLVESGGGLVKPGGSLRLSCAASGFTFNSYAMSWVRQTPEKGLEWVATISDAGSYTYYPDNEKGRFTISRDNAKNNLYLQMNSLRAEDTAIYYCVRGGYYYNLYAMDYWGQGTLVTVSS VL: DIVLTQSPDSLAVSLGERATINCKASQSVSFPGTSLMHWYQQKPGQQPKLLIYRASNLEAGVPDRFSGSGSRTDFTLTISSLQAEDVAVYYCQQSREYPWTFGGGTKVEIK | binds | binds |
| Hu005-44-MMAE (antibody, human IgG1, DAR about 4.12, V domains shown, vcMMAE on cysteines after TCEP reduction, positions not given, Antibody-drug conjugate of Hu005-44 (human IgG1, Kappa) with vcMMAE) VH: EVQLVESGGGLVKPGGSLRLSCAASGFTFNSYAMSWVRQTPGKGLEWVATISDAGSYTYYPDNEKGRFTISRDNAKNSLYLQMNSLRAEDTAIYYCVRGGYYYNLYAMDYWGQGTLVTVSS VL: DIVLTQSPDSLAVSLGERATINCKASQSVSFPGTSLMHWYQQKPGQQPKLLIYRASNLEAGVPDRFSGSGSRTDFTLTISSLQAEDVAVYYCQQSREYPWTFGGGTKVEIK | binds | binds |
| Hu005-43 (antibody, V domains shown, Humanized) VH: EVQLVESGGGLVKPGGSLRLSCAASGFTFNSYAMSWVRQTPGKGLEWVATISDAGSYTYYPDNEKGRFTISRDNAKNNLYLQMNSLRAEDTAIYYCVRGGYYYNLYAMDYWGQGTLVTVSS VL: DIVLTQSPDSLAVSLGERATINCKASQSVSFPGTSLMHWYQQKPGQQPKLLIYRASNLEAGVPDRFSGSGSRTDFTLTISSLQAEDVAVYYCQQSREYPWTFGGGTKVEIK | binds | binds |
| Hu005-42 (antibody, V domains shown, Humanized) VH: EVQLVESGGGLVKPGGSLRLSCAASGFTFNSYAMSWVRQTPEKRLEWVATISDAGSYTYYPDNEKGRFTISRDNAKNSLYLQMNSLRAEDTAIYYCVRGGYYYNLYAMDYWGQGTLVTVSS VL: DIVLTQSPDSLAVSLGERATINCKASQSVSFPGTSLMHWYQQKPGQQPKLLIYRASNLEAGVPDRFSGSGSRTDFTLTISSLQAEDVAVYYCQQSREYPWTFGGGTKVEIK | binds | binds |
| Hu001-05 (antibody, V domains shown, Humanized; also called Hu001-5) VH: QVQLVQSGAEVKKPGASVKVSCKASGYTFTDYNLHWVRQAPGQGLEWMGYINPNHDATSYNQKFQGKVTMTVDTSTSTVYMELSSLRSEDTAVYYCARRVRTGTGLDDWGQGTTVTVSS VL: DVVMTQSPLSLPVTLGQPASISCRSSHNIVHTNANTYLEWYQQRPGQSPRLLIYKVSNRFSGVPDRFSGSGSGTDFTLKISRVEAEDVGVYYCFQGSRFPYTFGGGTKVEIK | binds | binds |
| Hu001-06 (antibody, V domains shown, Humanized; also called Hu001-6) VH: QVQLVQSGAEVKKPGASVKVSCKASGYTFTDYNLHWVRQAPGQGLEWMGYINPNHDATSYNQKFQGKVTMTVDTSTSTVYMELSSLRSEDTAVYYCARRVRTGTGLDDWGQGTTVTVSS VL: DVVMTQSPLSLPVTLGQPASISCRSSHNIVHTNANTYLEWYQQRPGQSPKLLIYKVSNRFSGVPDRFSGSGSGTDFTLKISRVEAEDVGVYYCFQGSRFPYTFGGGTKVEIK | binds | binds |
| Hu001-08 (antibody, V domains shown, Humanized; also called Hu001-8) VH: QVQLVQSGAEVKKPGASVKVSCKASGYTFTDYNLHWVKQAPGQGLEWIGYINPNHDATSYNQKFQGKVTMTVDTSTSTVYMELSSLRSEDTAVYYCARRVRTGTGLDDWGQGTTVTVSS VL: DVVMTQSPLSLPVTLGQPASISCRSSHNIVHTNANTYLEWYQQRPGQSPRLLIYKVSNRFSGVPDRFSGSGSGTDFTLKISRVEAEDVGVYYCFQGSRFPYTFGGGTKVEIK | binds | binds |

Now from value to binder:

| binding result [1] | binding result [2] | Binder |
| --- | --- | --- |
| binds | binds | Hu001-11 (antibody, V domains shown, Humanized) VH: QVQLVQSGAEVKKPGASVKVSCKASGYTFTDYNLHWVKQAPGQGLEWIGYINPNHDATSYNQKFQGKATLTVDTSTSTVYMELSSLRSEDTAVYYCARRVRTGTGLDDWGQGTTVTVSS VL: DVVMTQSPLSLPVTLGQPASISCRSSHNIVHTNANTYLEWYQQRPGQSPRLLIYKVSNRFSGVPDRFSGSGSGTDFTLKISRVEAEDVGVYYCFQGSRFPYTFGGGTKVEIK |
| binds | binds | Hu001-14 (antibody, V domains shown, Humanized) VH: QVQLVQSGAEVKKPGASVKVSCKASGYTFTDYNLHWVKQAPGQGLEWIGYINPNHDATSYNQKFQGKATLTVDTSTSTAYMELSSLTSEDTAVYYCARRVRTGTGLDDWGQGTTVTVSS VL: DVVMTQSPLSLPVTLGQPASISCRSSHNIVHTNANTYLEWYQQRPGQSPRLLIYKVSNRFSGVPDRFSGSGSGTDFTLKISRVEAEDVGVYYCFQGSRFPYTFGGGTKVEIK |
| binds | binds | Hu001-15 (antibody, V domains shown, Humanized) VH: QVQLVQSGAEVKKPGASVKVSCKASGYTFTDYNLHWVKQAPGQGLEWIGYINPNHDATSYNQKFQGKATLTVDTSTSTAYMELSSLTSEDTAVYYCARRVRTGTGLDDWGQGTTVTVSS VL: DVVMTQSPLSLPVTLGQPASISCRSSHNIVHTNANTYLEWYQQRPGQSPKLLIYKVSNRFSGVPDRFSGSGSGTDFTLKISRVEAEDVGVYYCFQGSRFPYTFGGGTKVEIK |
| binds | binds | Hu001-3-MMAE (antibody, human IgG1, DAR about 4.15, V domains shown, vcMMAE on cysteines after TCEP reduction, positions not given, Antibody-drug conjugate of Hu001-3 (human IgG1, Kappa) with vcMMAE) VH: QVQLVQSGAEVKKPGASVKVSCKASGYTFTDYNLHWVRQAPGQGLEWMGYINPNHDATSYNQKFQGRVTMTRDTSTSTVYMELSSLRSEDTAVYYCARRVRTGTGLDDWGQGTTVTVSS VL: DVVMTQSPLSLPVTLGQPASISCRSSHNIVHTNANTYLEWYQQRPGQSPKLLIYKVSNRFSGVPDRFSGSGSGTDFTLKISRVEAEDVGVYYCFQGSRFPYTFGGGTKVEIK |
| binds | binds | Hu001-02 (antibody, V domains shown, Humanized; also called Hu001-2) VH: QVQLVQSGAEVKKPGASVKVSCKASGYTFTDYNLHWVRQAPGQGLEWMGYINPNHDATSYNQKFQGRVTMTRDTSTSTVYMELSSLRSEDTAVYYCARRVRTGTGLDDWGQGTTVTVSS VL: DVVMTQSPLSLPVTLGQPASISCRSSHNIVHTNANTYLEWYQQRPGQSPRLLIYKVSNRFSGVPDRFSGSGSGTDFTLKISRVEAEDVGVYYCFQGSRFPYTFGGGTKVEIK |
| binds | binds | Hu001-2-MMAE (antibody, human IgG1, DAR about 4.15, V domains shown, vcMMAE on cysteines after TCEP reduction, positions not given, Antibody-drug conjugate of Hu001-2 (human IgG1, Kappa) with vcMMAE) VH: QVQLVQSGAEVKKPGASVKVSCKASGYTFTDYNLHWVRQAPGQGLEWMGYINPNHDATSYNQKFQGRVTMTRDTSTSTVYMELSSLRSEDTAVYYCARRVRTGTGLDDWGQGTTVTVSS VL: DVVMTQSPLSLPVTLGQPASISCRSSHNIVHTNANTYLEWYQQRPGQSPRLLIYKVSNRFSGVPDRFSGSGSGTDFTLKISRVEAEDVGVYYCFQGSRFPYTFGGGTKVEIK |
| binds | binds | Hu001-12 (antibody, V domains shown, Humanized) VH: QVQLVQSGAEVKKPGASVKVSCKASGYTFTDYNLHWVKQAPGQGLEWIGYINPNHDATSYNQKFQGKATLTVDTSTSTVYMELSSLRSEDTAVYYCARRVRTGTGLDDWGQGTTVTVSS VL: DVVMTQSPLSLPVTLGQPASISCRSSHNIVHTNANTYLEWYQQRPGQSPKLLIYKVSNRFSGVPDRFSGSGSGTDFTLKISRVEAEDVGVYYCFQGSRFPYTFGGGTKVEIK |
| binds | binds | Hu001-03 (antibody, V domains shown, Humanized; also called Hu001-3) VH: QVQLVQSGAEVKKPGASVKVSCKASGYTFTDYNLHWVRQAPGQGLEWMGYINPNHDATSYNQKFQGRVTMTRDTSTSTVYMELSSLRSEDTAVYYCARRVRTGTGLDDWGQGTTVTVSS VL: DVVMTQSPLSLPVTLGQPASISCRSSHNIVHTNANTYLEWYQQRPGQSPKLLIYKVSNRFSGVPDRFSGSGSGTDFTLKISRVEAEDVGVYYCFQGSRFPYTFGGGTKVEIK |

From patent publication EP4585616A1, “ANTIBODY CAPABLE OF SPECIFICALLY BINDING TO ROR1, […] THEREOF, AND PREPARATION METHOD THEREFOR AND USE THEREOF” (Hefei Institutes of Physical Science, Chinese Academy of …, priority 2022, dated 2024)
